Publication PMC7155755, “Binding of the Human 14-3-3 Isoforms to Distinct Sites in the Leucine-Rich Repeat Kinase 2” (Frontiers in Neuroscience, 2020)
Entries after “also recorded” stand apart in the source; their conditions may differ. Blank lines part the entries; values can stand above or below the molecule they belong to. Square brackets hold non-standard residues; d marks the D form. Ends that are not written are not given here. fluorescein = N-terminal fluorescein label; pS = N[C@@H](COP(=O)(O)O)C(=O)O

How the values were obtained:
[1] = biological target: T1, human 14-3-3 isoform σ (Homo sapiens, UniProt P31947); assay: Fluorescence polarization (FP) direct binding assay; details: fluorescein-labeled peptide 1 nM
T1 construct: MBP (cleaved yes); made in house; host or cells: E. coli BL21DE3
T1 sequence (P31947 1-248): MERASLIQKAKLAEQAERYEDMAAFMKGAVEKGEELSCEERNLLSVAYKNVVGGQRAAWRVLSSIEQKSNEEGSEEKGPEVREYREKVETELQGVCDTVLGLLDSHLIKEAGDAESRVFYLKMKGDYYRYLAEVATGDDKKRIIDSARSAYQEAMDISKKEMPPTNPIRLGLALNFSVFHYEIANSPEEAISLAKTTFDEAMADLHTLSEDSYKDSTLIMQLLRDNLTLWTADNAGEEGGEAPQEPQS
Protocol: (§1) Human MBP-tagged 14-3-3 isoforms were expressed from pMAL2CX plasmids [[Kilisch et al. (2016)], [Yuan et al. (2003)]] in E. coli BL21DE3 cells. After induction with […] isopropyl-β-D-thiogalactoside, the protein was expressed for 4 h at room temperature. Cells were lysed in MBP-lysis buffer [50 mM Tris–HCl pH 7.5, 150 mM NaCl, 5 mM MgCl2, 1 mM PMSF, 1× cOmplete Protease Inhibitor EDTA-free (Roche)] using a French Pressure cell (FRENCH Press, Thermo, United States). Following centrifugation at 42,000 × g and 4°C for 30 min, the supernatant was transferred to a Maltose-agarose column (1.5 ml bed volume; New England Biolabs GmbH, Germany). Captured proteins were washed six times with 10 ml wash buffer (50 mM Tris–HCl pH 7.5, 150 mM NaCl, 5 mM MgCl2) prior to elution using wash buffer including 15 mM D-maltose. To remove the MBP tag, fusion proteins were incubated with Factor Xa (New England Biolabs GmbH, Germany), at a final concentration of 0.4 μg per 1 mg fusion protein for 24 h at RT following another 72 h at 4°C. Anion exchange chromatography was finally applied to separate residual MBP using a buffer gradient from 20 mM Tris pH 8 to 20 mM Tris pH 8 with 1 M NaCl. For this a RESOURCE Q column (GE Healthcare, United Kingdom) was utilized, employing an ÄKTApurifier (GE Healthcare, United Kingdom) or an NGC Quest Chromatography System (Bio-Rad Laboratories GmbH, Germany).
(§2) FP was used to determine binding affinities of different phosphorylated and non-phosphorylated peptides derived from LRRK2 sequences (Peps4LS GmbH, Germany) toward human 14-3-3 isoforms. Direct binding assays were performed and evaluated as previously described ([Muda et al., 2014]; [Manschwetus et al., 2019]). Briefly, both dilution series of 14-3-3 isoforms ranging from final concentrations of at least 5 μM down to picomolar concentrations and dilutions of the respective fluorescein-labeled peptide (final conc. 1 nM) were prepared in FP buffer (20 mM MOPS pH 7, 150 mM NaCl, 0.005% CHAPS). Subsequently, samples were mixed in 384-well microtiter plates as duplicates (BRAND plates, pureGrade, black, BRAND GmbH & Co. KG, Germany) in a 1:1 ratio and measured using a CLARIOstar plate reader (BMG LABTECH, Germany). Two protein preparations were utilized for at least two independent replications for all measurements while high affinity binding peptides were particularly measured with a minimum of three independent replications for statistical evaluation. Data was analyzed with GraphPad Prism 6.0 (GraphPad Software, San Diego, CA, United States) by plotting obtained FP signals (mPol) against the logarithmic 14-3-3 protein concentrations. Data points represent means ± standard error of mean (SEM) of duplicates. “Ctrl.” indicates the FP signal of fluorescein-labeled peptides without 14-3-3 protein. Sigmoidal dose-response fitting was performed to define KD-values.

[2] = biological target: T2, human 14-3-3γ (Homo sapiens, UniProt P61981); assay: as above; details: dilution series of 14-3-3γ (at least 5 μM down to pM), fluorescein-labeled peptide 1 nM
T2 construct: MBP (cleaved yes); made in house; host or cells: E. coli BL21DE3
T2 sequence (P61981 1-247): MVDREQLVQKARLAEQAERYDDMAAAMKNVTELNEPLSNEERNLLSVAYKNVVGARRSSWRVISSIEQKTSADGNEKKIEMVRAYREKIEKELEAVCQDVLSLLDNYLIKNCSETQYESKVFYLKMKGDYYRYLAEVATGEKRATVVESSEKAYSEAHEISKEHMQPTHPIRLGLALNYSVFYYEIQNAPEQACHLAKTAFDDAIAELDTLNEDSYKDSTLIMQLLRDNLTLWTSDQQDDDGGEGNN
Protocol: as §1, §2

[3] = tested on: all seven human 14-3-3 isoforms; assay: Fluorescence polarization (FP) direct binding assay, statements over all isoforms; details: FP direct binding; all seven isoforms; fluorescein-labeled peptide 1 nM; FP buffer pH 7
Protocol: as §1, §2

[4] = biological target: T3, human 14-3-3 isoform ϵ (Homo sapiens, UniProt P62258); assay: Fluorescence polarization (FP) direct binding assay; details: fluorescein-labeled peptide 1 nM
T3 construct: MBP (cleaved yes); made in house; host or cells: E. coli BL21DE3
T3 sequence (P62258 1-255): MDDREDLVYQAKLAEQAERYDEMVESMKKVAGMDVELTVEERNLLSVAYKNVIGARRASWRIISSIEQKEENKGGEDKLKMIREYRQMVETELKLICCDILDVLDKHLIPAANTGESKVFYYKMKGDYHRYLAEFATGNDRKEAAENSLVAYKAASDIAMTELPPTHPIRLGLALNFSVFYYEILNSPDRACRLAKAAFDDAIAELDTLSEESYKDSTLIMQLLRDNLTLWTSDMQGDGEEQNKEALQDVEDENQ
Protocol: as §1, §2

[5] = biological target: 14-3-3γ (UniProt P61981); assay: fluorescence polarization direct binding
[6] = biological target: 14-3-3ε (UniProt P62258); assay: fluorescence polarization direct binding; details: reference: unphosphorylated S1443/S1444 peptide; sites S1444
[7] = biological target: T4, R1441C/pS1444 (R1441C (stands in the printed letters)); assay: fluorescence polarisation; direct binding; dilution series of 14-3-3 isoform (at least 5 μM down to picomolar) mixed with 1 nM fluorescein-labelled peptide; 20 mM MOPS pH 7, 150 mM NaCl, 0.005% CHAPS; 384-well plates; details: both partners purified
T4 construct: LRRK2-derived peptide of the Roc domain with the familial PD mutation R1441C, phosphorylated at S1444; source: synthetic peptide (Peps4LS GmbH)
T4 peptide: fluorescein-LFNIKACAS[pS]SPVILVGT

[8] = biological target: pS1444; assay: as above

Molecule: LFNIKARApSpSSPVILVGT [pS1443/pS1444, fluorescein-labeled LRRK2 Roc domain peptide doubly phosphorylated at S1443 and S1444]
Binding to 14-3-3 isoform ϵ, in words [4]: not fitted due to an unusual binding behavior
Binding to 14-3-3γ, in words ([2]; FP buffer pH 7): reduced binding to 14-3-3γ compared to pS1444
Binding to the human 14-3-3 isoforms, in words [3]: micromolar affinities; also recorded: reduced nanomolar binding affinity to micromolar values

Molecule: LRRK2 (leucine-rich repeat kinase 2) (from UniProt Q5S007) pS910 peptide
binding against the reference ([5]; reference: unphosphorylated S910 peptide, sites S910): gained

Molecule: LRRK2 (leucine-rich repeat kinase 2) (from UniProt Q5S007) pS1443/pS1444 peptide
KD ([5]; reference: pS1444 peptide, sites S1443): weaker; reference 106 ± 4
binding against the reference ([5]; reference: unphosphorylated S1443/S1444 peptide, sites S1443,S1444): gained

Molecule: LRRK2 (leucine-rich repeat kinase 2) (from UniProt Q5S007) pS1444 peptide
KD [6]: gained; reference no binding detected

Continued, in another order:

Binding to 14-3-3 isoform σ, in words [1]: worst binding
Binding to 14-3-3γ, in words ([2]; FP buffer pH 7): micromolar affinities
Binding to 14-3-3γ, in words ([2]; FP buffer pH 7, listed as Phosphorylated T2524): clearly binds with micromolar affinity
Molecule: HIEVRKELAEKMRRpTSVE [pT2524, fluorescein-labeled phosphopeptide of the LRRK2 C-terminus comprising pT2524]
Binding to the human 14-3-3 isoforms, in words [3]: Micromolar affinities; also recorded: low micromolar range

fold decrease in affinity against pS1444 [7]: ≥ 30 fold
Kd [8]: 85 nM
B1: human 14-3-3 isoform η (recombinant, MBP tag removed) (natural protein, UniProt Q04917 1-246, looked up)
chain: MGDREQLLQRARLAEQAERYDDMASAMKAVTELNEPLSNEDRNLLSVAYKNVVGARRSSWRVISSIEQKTMADGNEKKLEKVKAYREKIEKELETVCNDVLSLLDKFLIKNCNDFQYESKVFYLKMKGDYYRYLAEVASGEKKNSVVEASEAAYKEAFEISKEQMQPTHPIRLGLALNFSVFYYEIQNAPEQACLLAKQAFDDAIAELDTLNEDSYKDSTLIMQLLRDNLTLWTSDQQDEEAGEGN
notes: 14-3-3 eta, human; Expressed from pMAL2CX plasmids; also called 14-3-3η; source: E. coli BL21DE3, purified (maltose-agarose, Factor Xa, anion exchange)

fold decrease in affinity against pS1444 [7]: ≥ 30 fold
Kd [8]: 195 nM
B2: human 14-3-3 isoform θ (recombinant, MBP tag removed) (natural protein, UniProt P27348 1-245, looked up)
chain: MEKTELIQKAKLAEQAERYDDMATCMKAVTEQGAELSNEERNLLSVAYKNVVGGRRSAWRVISSIEQKTDTSDKKLQLIKDYREKVESELRSICTTVLELLDKYLIANATNPESKVFYLKMKGDYFRYLAEVACGDDRKQTIDNSQGAYQEAFDISKKEMQPTHPIRLGLALNFSVFYYEILNNPELACTLAKTAFDEAIAELDTLNEDSYKDSTLIMQLLRDNLTLWTSDSAGEECDAAEGAEN
notes: 14-3-3 theta, human; Expressed from pMAL2CX plasmids; also called 14-3-3θ; source: E. coli BL21DE3, purified (maltose-agarose, Factor Xa, anion exchange)

fold decrease in affinity against pS1444 [7]: ≥ 30 fold
Kd [8]: 802 nM
B3: human 14-3-3 isoform σ (recombinant, MBP tag removed) (natural protein, UniProt P31947 1-248, looked up)
chain: T1 sequence (P31947 1-248)
notes: 14-3-3 sigma, human; Expressed from pMAL2CX plasmids; also called 14-3-3σ; source: E. coli BL21DE3, purified (maltose-agarose, Factor Xa, anion exchange)
